How the values were obtained:
Test in all cases: cell-based or functional assay
[1] = biological target: chymosin polypeptide secreted by fungi transformed with pGRG1 (A. niger glucoamylase signal peptide fused to bovine prochymosin) (bovine) (UniProt P00794)
[2] = biological target: chymosin polypeptide secreted by fungi transformed with pGRG2 (A. niger glucoamylase signal peptide and propeptide fused to bovine prochymosin) (bovine) (UniProt P00794)
[3] = biological target: chymosin polypeptide secreted by fungi transformed with pGRG3 (bovine preprochymosin under the glucoamylase promoter) (bovine) (UniProt P00794)

pepstatin (peptide)
Chymosin Activity (µg/ml) of pGRG1 broth after preincubation with pepstatin (0.2 without pepstatin) [1]: 0.05 µg/ml | Chymosin Activity (µg/ml) of pGRG2 broth after preincubation with pepstatin (0.1 without pepstatin) [2]: 0 µg/ml | Chymosin Activity (µg/ml) of pGRG3 broth after preincubation with pepstatin (3 without pepstatin) [3]: 0.6 µg/ml

Reference: patent publication US6379928
